Data on one protein can be found in publication PMC8666670, “Malonyl-acyl carrier protein decarboxylase activity promotes fatty acid and cell envelope biosynthesis in Proteobacteria” (The Journal of Biological Chemistry, 2021).

Substrate in the data set: CC(=O)SCCNC(=O)CCNC(=O)[C@H](O)C(C)(C)COP(=O)(O)OP(=O)(O)OC[C@H]1O[C@@H](n2cnc3c(N)ncnc32)[C@H](O)[C@@H]1OP(=O)(O)O
Briefly: radiochemical TLC acetyltransferase assay, one-site Hill fit. The following applies: 500 μM glucosamine-1-phosphate, 20 mM MgCl2, 37 °C, labelled compound. The format is biochemical, Escherichia coli.

B1: GlmU (Escherichia coli K-12) (protein)
chain: MLNNAMSVVILAAGKGTRMYSDLPKVLHTLAGKAMVQHVIDAANELGAAHVHLVYGHGGDLLKQALKDDNLNWVLQAEQLGTGHAMQQAAPFFADDEDILMLYGDVPLISVETLQRLRDAKPQGGIGLLTVKLDDPTGYGRITRENGKVTGIVEHKDATDEQRQIQEINTGILIANGADMKRWLAKLTNNNAQGEYYITDIIALAYQEGREIVAVHPQRLSEVEGVNNRLQLSRLERVYQSEQAEKLLLAGVMLRDPARFDLRGTLTHGRDVEIDTNVIIEGNVTLGHRVKIGTGCVIKNSVIGDDCEISPYTVVEDANLAAACTIGPFARLRPGAELLEGAHVGNFVEMKKARLGKGSKAGHLTYLGDAEIGDNVNIGAGTITCNYDGANKFKTIIGDDVFVGSDTQLVAPVTVGKGATIAAGTTVTRNVGENALAISRVPQTQKEGWRRPVKKK
notes: full-length in pET28a, His-tag kept; expressed in E. coli BL21(DE3)
In general, Km refers to the substrate concentration at which the rate is half of its maximum. With B1, the Km came out at 400 µM.
